Reference: patent US20260022175A1 (Chugai, published 2026)
Positions count from the first letter of the chain named.

Key:
[1] = target: T1, mCTLA4-His (mouse CTLA4 extracellular region linked with a His-tag) (mouse, UniProt P09793 36-161); assay: SPR 37C, ATP 100 µM
[2] = target: T1, mCTLA4-His (mouse CTLA4 extracellular …); assay: SPR 37C, ATP 100 µM; remark: listed apart in the source
[3] = target: T1, mCTLA4-His (mouse CTLA4 extracellular …); assay: SPR 37C, ATP 10 µM
[4] = target: T2, human FcγRIIIa F extracellular domain (human, UniProt P08637 17-208); assay: SPR Biacore 8K+, antibody captured, FcγR as analyte, 1:1 Langmuir model; hFcγR IIIa F allotype
T2 construct: extracellular domain; also called hFcγR IIIa F
T2 sequence (P08637 17-208): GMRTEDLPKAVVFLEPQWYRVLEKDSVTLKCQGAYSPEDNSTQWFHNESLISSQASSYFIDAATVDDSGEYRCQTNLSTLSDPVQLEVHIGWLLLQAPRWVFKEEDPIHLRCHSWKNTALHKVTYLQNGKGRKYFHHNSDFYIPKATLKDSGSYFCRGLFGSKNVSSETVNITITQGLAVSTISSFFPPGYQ

[5] = target: T3, human FcγRIIb extracellular domain (human, UniProt P31994 43-217); assay: SPR Biacore 8K+, antibody captured, FcγR as analyte, steady state affinity model
T3 construct: extracellular domain; also called hFcγR IIb
T3 sequence (looked up): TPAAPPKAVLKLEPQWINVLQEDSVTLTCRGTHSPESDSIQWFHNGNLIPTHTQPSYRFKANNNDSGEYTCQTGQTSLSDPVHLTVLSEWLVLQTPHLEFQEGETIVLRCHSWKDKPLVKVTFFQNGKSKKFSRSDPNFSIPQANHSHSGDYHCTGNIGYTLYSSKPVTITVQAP

[6] = target: T4, human FcγRIa extracellular domain (human, UniProt P12314 16-292); assay: SPR Biacore 8K+, antibody captured, FcγR as analyte, 1:1 Langmuir model;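 also: antibodies captured on a streptavidin chip through a biotinylated anti-human Fab kappa reagent, with FcγR extracellular domains injected in pH 7.4 phosphate buffer at 25 °C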
T4 construct: extracellular domain; also called hFcγR Ia; hFcγRIa
T4 sequence (P12314 16-292): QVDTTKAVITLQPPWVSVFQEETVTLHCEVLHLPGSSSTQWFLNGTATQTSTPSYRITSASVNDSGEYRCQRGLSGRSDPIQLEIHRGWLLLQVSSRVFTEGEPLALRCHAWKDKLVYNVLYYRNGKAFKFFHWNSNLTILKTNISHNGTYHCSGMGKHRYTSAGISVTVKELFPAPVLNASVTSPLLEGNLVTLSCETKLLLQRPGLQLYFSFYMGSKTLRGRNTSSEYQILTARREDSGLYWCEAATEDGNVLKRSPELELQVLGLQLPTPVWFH

[7] = target: T5, human FcγRIIa H extracellular domain (human, UniProt P12318 34-217); assay: as above
T5 construct: extracellular domain; also called hFcγR IIa H
T5 sequence (looked up): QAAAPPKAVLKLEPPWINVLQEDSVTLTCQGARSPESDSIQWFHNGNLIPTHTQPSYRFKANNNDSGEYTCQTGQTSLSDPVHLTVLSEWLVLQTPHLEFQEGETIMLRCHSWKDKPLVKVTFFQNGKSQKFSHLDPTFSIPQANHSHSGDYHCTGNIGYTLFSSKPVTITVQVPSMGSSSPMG

[8] = target: T6, human FcγRIIa R extracellular domain (human, UniProt P12318 34-217); assay: as above
T6 construct: extracellular domain; also called hFcγR IIa R
T6 sequence (looked up): T5 sequence (looked up) with H134R

[9] = target: T2, human FcγRIIIa F extracellular domain; assay: SPR Biacore 8K+; KD for FcγRIIb divided by KD for this FcγR;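 also: antibodies captured on an anti-human Fab kappa SA chip with soluble human FcγR ectodomains flowed over, FcγRIIb KD from steady-state fit, other FcγR KD from Langmuir model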
[10] = target: T7, human FcγRIIIa V extracellular domain (human, UniProt P08637 17-208); assay: as above
T7 construct: extracellular domain; also called hFcγR IIIa V
T7 sequence (P08637 17-208 F176V limits assumed): as the sequence (P08637 17-208) above, with F160V counted along it

[11] = target: T5, human FcγRIIa H extracellular domain; assay: as above
[12] = target: T6, human FcγRIIa R extracellular domain; assay: as above
[13] = target: T8, hFcγRIIaH on hFcγRIIaH-expressing Jurkat cells (human, UniProt P12318 34-317); assay: cell-based or functional assay
T8 sequence (looked up): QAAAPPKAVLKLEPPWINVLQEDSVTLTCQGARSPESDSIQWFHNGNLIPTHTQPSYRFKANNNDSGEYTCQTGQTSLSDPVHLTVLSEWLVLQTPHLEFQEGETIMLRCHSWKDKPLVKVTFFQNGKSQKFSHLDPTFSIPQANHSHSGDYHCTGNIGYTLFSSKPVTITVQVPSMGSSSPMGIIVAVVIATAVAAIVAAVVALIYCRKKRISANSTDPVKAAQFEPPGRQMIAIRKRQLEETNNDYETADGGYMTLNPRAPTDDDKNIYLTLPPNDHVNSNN

[14] = target: T2, human FcγRIIIa F extracellular domain; assay: SPR Biacore 8K+; KD of G1d divided by KD of this antibody;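 also: antibodies captured on an anti-Fab-kappa streptavidin chip, soluble FcγR ectodomains flowed over, KD by steady-state fit for FcγRIIb and Langmuir kinetic model for the other receptors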
[15] = target: T3, human FcγRIIb extracellular domain; assay: as above
[16] = target: T7, human FcγRIIIa V extracellular domain; assay: as above
[17] = target: T4, human FcγRIa extracellular domain; assay: as above
[18] = target: T5, human FcγRIIa H extracellular domain; assay: as above
[19] = target: T6, human FcγRIIa R extracellular domain; assay: as above
[20] = target: T7, human FcγRIIIa V extracellular domain; assay: SPR Biacore 8K+, antibody captured, FcγR as analyte, 1:1 Langmuir model; hFcγR IIIa V allotype
[21] = target: hFcγRIIIaV on hFcγRIIIaV-expressing Jurkat cells (human, UniProt P08637 17-254); assay: cell-based or functional assay
Chain of hFcγRIIIaV on hFcγRIIIaV-expressing Jurkat cells (P08637 17-254, form in doubt): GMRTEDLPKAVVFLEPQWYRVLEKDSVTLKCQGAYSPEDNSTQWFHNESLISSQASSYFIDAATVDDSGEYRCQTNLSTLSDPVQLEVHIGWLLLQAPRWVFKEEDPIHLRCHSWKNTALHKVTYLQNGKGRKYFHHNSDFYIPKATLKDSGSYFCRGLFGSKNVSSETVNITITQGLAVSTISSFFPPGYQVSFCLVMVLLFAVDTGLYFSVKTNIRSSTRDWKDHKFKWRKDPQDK

human CTLA4 [22] = target: T9, human CTLA4 (human); assay: SPR, 37C, antibody captured by anti-mouse IgG, ATP 100 uM
T9 construct: also called hCTLA4; hCTLA4-His-BAP
T9 sequence (chain, as listed by the source limits assumed): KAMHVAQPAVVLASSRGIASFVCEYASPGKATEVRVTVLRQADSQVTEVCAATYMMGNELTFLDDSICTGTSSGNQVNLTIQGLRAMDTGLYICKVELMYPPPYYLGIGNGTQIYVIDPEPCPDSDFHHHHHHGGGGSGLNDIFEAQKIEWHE

human CTLA4 [23] = target: T9, human CTLA4; assay: SPR, 37C, antibody captured by anti-mouse IgG, ATP 1 uM
human CTLA4 [24] = target: T9, human CTLA4; assay: SPR, 37C, antibody captured by anti-mouse IgG, ATP 10 uM

B1: 04H1208-G1m/04L1407-k0MT (antibody, human IgG1, kappa, V domains shown)
VH: EVQLVESGGGLVKPGGSLRLSCAASGFTFSSKTMNWVRQAPGKGLEWVSSISTRSGYIYYARSVKGRFTISRDNAKNSLYLQMNSLRAEDTAVYYCARYGKREDMLWVFDYWGQGTLVTVSS
VL: DIVMTQSPLSLPVTPGEPASISCDGPSTDVGDYNWVHWYQQKPGQAPRLLIYYTSSKPEGVPDRFSGSGSGTDFTLKISRVEAEDVGVYYCQTYAAPLGPTFGQGTKLEIKR
- Kd [1]: 16 nM
- fold weaker than its binding ability to human CTLA4 [2]: ~2 times
- Kd [3]: 84 nM

B2: H240-Kn037/L73-k0//H240-Hl036/L73-k0 (antibody, human IgG1, kappa)
heavy 1: QDQLVQSGAEVKKPGASVKVSCKASGFNIKDTYIQWVRQAPGQGLEWMGRIDPLRKQTKYREKFEGRVTITADTSTNTAYMELSSLRSEDTAVYYCVRSGREFDYWGQGTLVTVSSASTKGPSVFPLAPSSKSTSGGTAALGCLVKDYFPEPVTVSWNSGALTSGVHTFPAVLQSSGLYSLSSVVTVPSSSLGTQTYICNVNHKPSNTKVDKKVEPKSCDKTHTCPPCPAPELLAGPDVFLFPPKPKDTLMISRTPEVTCVVVDVSHEDPEVKFNWYVDGVEVHNAKTKPREEQYNSTYRVVSVLTVLHQDWLNGKEYKCKVSNKALPAPEEKTISKAKGQPREPQVCTLPPSRDELTKNQVSLWCLVKGFYPSDIAVEWESNGQPENNYKTTPPVLDSDGSFFLYSKLTVDKSRWQQGNVFSCSVMHEALHNHYTQKSLSLSP
heavy 2: B2 heavy 1 with C348Y, D355C, W365S, L367A, Y406V
light: DIQMTQSPSSLSASVGDRVTITCRASQDIHKYIAWYQQKPGQAPRLLIQYTSTLQPGVPSRFSGSGSGTDYTFTISSLQPEDIATYYCLQYEQLRTFGGGTKVEIKRTVAAPSVFIFPPSDEQLKSGTASVVCLLNNFYPREAKVQWKVDNALQSGNSQESVTEQDSKDSTYSLSSTLTLSKADYEKHKVYACEVTHQGLSSPVTKSFNRGEC
notes: also called EGL-GASDIE; GASDIE
- Kd [4]: 66.1 nM
- Kd [5]: 1250 nM
- Kd [6]: 0.0145 nM
- Kd [7]: 68.6 nM
- Kd [8]: 67 nM
- A/I ratio (KD for FcγRIIb divided by KD for each FcγR) [9]: 18.9
- A/I ratio (KD for FcγRIIb divided by KD for each FcγR) [10]: 52.6
- A/I ratio (KD for FcγRIIb divided by KD for each FcγR) [11]: 18.2
- A/I ratio (KD for FcγRIIb divided by KD for each FcγR) [12]: 18.6
- EC50 value (hFcγRIIaH ADCP Reporter Bioassay, Hepa1-6/hEREG target cells) [13]: 14.9 ng/mL
- Relative value to KD between G1d and hFcgRs [14]: 44.7
- Relative value to KD between G1d and hFcgRs [15]: 8
- Relative value to KD between G1d and hFcgRs [16]: 15.1
- Relative value to KD between G1d and hFcgRs [17]: 6.2
- Relative value to KD between G1d and hFcgRs [18]: 16.4
- Relative value to KD between G1d and hFcgRs [19]: 24.7
- Kd [20]: 23.8 nM
- EC50 value (hFcγRIIIaV ADCC Reporter Bioassay, Hepa1-6/hEREG target cells) [21]: 3.7 ng/mL

B3: 04H1389-mFa55/04L1305-mk1 (antibody, mouse IgG2a, kappa)
heavy: EVQLVESGGGLVKPGGSLRLSCAASGFTFSSKTMNWVRQAPGKGLEWVSSISTQSHYIYYAESVKGRFTISRDNAKNSLYLQMNSLRAEDTAVYYCARYGKREDMLWVFDYWGQGTLVTVSSAKTTAPSVYPLAPVCGDTTGSSVTLGCLVKGYFPEPVTLTWNSGSLSSGVHTFPAVLQSDLYTLSSSVTVTSSTWPSQSITCNVAHPASSTKVDKKIEPRGPTIKPCPPCKCPAPNLLGGPDVFIFPPKIKDVLMISLSPIVTCVVVDVSEDDPDVQISWFVNNVEVHTAQTQTHREDYNSTLRVVSALPIQHQDWMSGKEFKCKVNNKDLPAPIERTISKPKGSVRAPQVYVLPPPEEEMTKKQVTLTCMVTDFMPEDIYVEWTNNGKTELNYKNTEPVLDSDGSYFMYSKLRVEKKNWVERNSYSCSVVHEGLHNHHTTKSFSRTPGK
light: DIVMTQSPLSLPVTPGEPASISCDGPSTGVGDYNYVHWYQQKPGQAPRLLIYFTSKKPSGVPDRFSGSGSGTDFTLKISRVEAEDVGVYYCQTYAAPLGPMFGQGTKLEIKRADAAPTVSIFPPSSEQLTSGGASVVCFLNNFYPKDINVKWKIDGSERQNGVLNSWTDQDSKDSTYSMSSTLTLTKDEYERHNSYTCEATHKTSTSPIVKSFNRNEC
notes: Mouse constant regions mFa55 and mk1; also called SW1389-mFa55
- Kd (human CTLA4 [22]): 8.9 nM
- Kd (human CTLA4 [23]): 51 nM
- Kd (human CTLA4 [24]): 18 nM
